The source of these data is US20180171002A1 (BERG, published 2018).

The target in test [1] is T1, HEK293-expressed full length FLNA (UniProt: P21333) (human, UniProt P21333 2-2647).
T1 construct: Full length protein; also called full length human FLNA protein; Full length filamin A
In words: ELISA, negative control. For orientation: In an ELISA, binding on a coated surface is turned into a signal by an enzyme label.

For test [2], the target named is E.Coli-expressed FLNC (aa 1438-2128) (Homo sapiens (Human)) (UniProt Q14315). In words: ELISA, negative control.
For test [3], the target named is E.Coli-expressed partial FLNB (aa 1416-2089) (Homo sapiens (Human)) (UniProt O75369). The experiment in a line: ELISA, negative control.
In test [4] the target is E.Coli-expressed partial FLNA (aa 1443-2131) (human) (UniProt P21333). In words: ELISA, negative control.
The target of test [5] is HEK293-expressed full length FLNB (Homo sapiens (Human)) (UniProt O75369). In words: ELISA, negative control.
Test [6] has as its target T1, HEK293-expressed full length FLNA …. In words: ELISA, positive control.
Test [7] has as its target E.Coli-expressed FLNC (aa 1438-2128) (Homo sapiens (Human)) (UniProt Q14315). The experiment in a line: ELISA, positive control.
Test [8] has as its target E.Coli-expressed partial FLNA (aa 1443-2131) (human) (UniProt P21333). The experiment in a line: ELISA, positive control.
Test [9] deals with T2, E.Coli-expressed partial FLNA (aa 1443-2131) (human, UniProt P21333 1443-2131).
T2 construct: also called FLNA Partial; partial FLNA protein
T2 sequence: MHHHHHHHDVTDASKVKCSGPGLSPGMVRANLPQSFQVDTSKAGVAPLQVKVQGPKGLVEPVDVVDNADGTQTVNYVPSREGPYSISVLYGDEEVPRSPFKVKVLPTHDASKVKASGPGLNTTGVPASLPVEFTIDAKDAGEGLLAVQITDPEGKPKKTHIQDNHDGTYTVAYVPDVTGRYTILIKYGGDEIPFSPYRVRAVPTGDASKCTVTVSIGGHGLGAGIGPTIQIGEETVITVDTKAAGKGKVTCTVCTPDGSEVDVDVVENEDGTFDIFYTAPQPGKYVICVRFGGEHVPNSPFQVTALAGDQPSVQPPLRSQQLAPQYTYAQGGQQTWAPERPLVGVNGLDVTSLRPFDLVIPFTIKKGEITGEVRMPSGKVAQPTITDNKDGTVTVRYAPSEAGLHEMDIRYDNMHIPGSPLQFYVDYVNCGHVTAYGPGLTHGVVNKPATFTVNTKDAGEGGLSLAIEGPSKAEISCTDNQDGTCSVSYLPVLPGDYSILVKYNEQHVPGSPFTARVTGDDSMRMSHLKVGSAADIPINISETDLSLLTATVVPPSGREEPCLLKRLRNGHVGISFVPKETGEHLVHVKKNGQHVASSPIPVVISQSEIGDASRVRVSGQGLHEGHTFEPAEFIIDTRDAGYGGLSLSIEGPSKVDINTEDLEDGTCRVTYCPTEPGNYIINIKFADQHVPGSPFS
In words: BLI (Octet), antibody on AMC anti-mIgG Fc capture sensor, FLNA Partial at 100 nM. The protocol: Kinetics studies with ForteBio Bio-Layer Interferometry (BLI) technology were carried out. BLI is a label-free technology for measuring biomolecular interactions. It is an optical analytical technique that analyzes the interference pattern of white light reflected from two surfaces: a layer of immobilized protein on the biosensor tip, and an internal reference layer. Any change in the number of molecules bound to the biosensor tip causes a shift in the interference pattern that can be measured in real-time. The Octet analysis results are shown as below in Table 3.
In general terms: Biolayer interferometry detects binding as a change in optical thickness at a sensor tip.

Test [10] concerns the target T1, HEK293-expressed full length FLNA …. In words: ELISA, hybridoma supernatant on protein. The protocol: (§1) Next, supernatants from clone 2C12, 3F4, and 6E3 were tested to bind the above proteins by ELISA. FLNA proteins were tested for specificity, while homologous proteins FLNB and FLNC from the same family were tested for cross-reactivity. 10% pooled normal human serum was also included for any unexpected non-specific binding.

Test [11] has as its target T3, E.Coli-expressed FLNC (aa 1438-2128) (Homo sapiens (Human), UniProt Q14315 1438-2128).
T3 construct: also called Partial filamin C
T3 sequence: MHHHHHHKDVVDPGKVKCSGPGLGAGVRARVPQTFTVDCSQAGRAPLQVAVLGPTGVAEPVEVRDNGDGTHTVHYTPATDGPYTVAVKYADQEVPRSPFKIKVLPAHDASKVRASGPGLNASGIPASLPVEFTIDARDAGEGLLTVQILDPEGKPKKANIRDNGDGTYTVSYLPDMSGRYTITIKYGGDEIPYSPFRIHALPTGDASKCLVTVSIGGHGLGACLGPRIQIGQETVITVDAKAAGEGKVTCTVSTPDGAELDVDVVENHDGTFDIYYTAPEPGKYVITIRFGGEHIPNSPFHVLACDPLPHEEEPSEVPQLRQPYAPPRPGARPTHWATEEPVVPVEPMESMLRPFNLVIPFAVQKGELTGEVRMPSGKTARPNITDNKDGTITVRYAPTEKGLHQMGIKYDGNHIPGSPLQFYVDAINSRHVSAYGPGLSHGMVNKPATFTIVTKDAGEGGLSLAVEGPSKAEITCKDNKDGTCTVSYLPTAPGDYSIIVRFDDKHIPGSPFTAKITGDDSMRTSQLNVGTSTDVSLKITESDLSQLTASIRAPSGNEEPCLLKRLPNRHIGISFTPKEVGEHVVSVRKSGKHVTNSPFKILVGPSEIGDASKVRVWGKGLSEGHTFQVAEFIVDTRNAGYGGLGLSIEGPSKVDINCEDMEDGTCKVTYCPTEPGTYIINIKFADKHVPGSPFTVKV
The experiment in a line: ELISA, hybridoma supernatant on protein. On the procedure: as §1

Test [12] has as its target T2, E.Coli-expressed partial FLNA (aa …). The experiment in a line: ELISA, hybridoma supernatant on protein. The protocol:
as §1

T1 sequence (P21333 other isoform, or with tags, fused parts or gaps limits assumed): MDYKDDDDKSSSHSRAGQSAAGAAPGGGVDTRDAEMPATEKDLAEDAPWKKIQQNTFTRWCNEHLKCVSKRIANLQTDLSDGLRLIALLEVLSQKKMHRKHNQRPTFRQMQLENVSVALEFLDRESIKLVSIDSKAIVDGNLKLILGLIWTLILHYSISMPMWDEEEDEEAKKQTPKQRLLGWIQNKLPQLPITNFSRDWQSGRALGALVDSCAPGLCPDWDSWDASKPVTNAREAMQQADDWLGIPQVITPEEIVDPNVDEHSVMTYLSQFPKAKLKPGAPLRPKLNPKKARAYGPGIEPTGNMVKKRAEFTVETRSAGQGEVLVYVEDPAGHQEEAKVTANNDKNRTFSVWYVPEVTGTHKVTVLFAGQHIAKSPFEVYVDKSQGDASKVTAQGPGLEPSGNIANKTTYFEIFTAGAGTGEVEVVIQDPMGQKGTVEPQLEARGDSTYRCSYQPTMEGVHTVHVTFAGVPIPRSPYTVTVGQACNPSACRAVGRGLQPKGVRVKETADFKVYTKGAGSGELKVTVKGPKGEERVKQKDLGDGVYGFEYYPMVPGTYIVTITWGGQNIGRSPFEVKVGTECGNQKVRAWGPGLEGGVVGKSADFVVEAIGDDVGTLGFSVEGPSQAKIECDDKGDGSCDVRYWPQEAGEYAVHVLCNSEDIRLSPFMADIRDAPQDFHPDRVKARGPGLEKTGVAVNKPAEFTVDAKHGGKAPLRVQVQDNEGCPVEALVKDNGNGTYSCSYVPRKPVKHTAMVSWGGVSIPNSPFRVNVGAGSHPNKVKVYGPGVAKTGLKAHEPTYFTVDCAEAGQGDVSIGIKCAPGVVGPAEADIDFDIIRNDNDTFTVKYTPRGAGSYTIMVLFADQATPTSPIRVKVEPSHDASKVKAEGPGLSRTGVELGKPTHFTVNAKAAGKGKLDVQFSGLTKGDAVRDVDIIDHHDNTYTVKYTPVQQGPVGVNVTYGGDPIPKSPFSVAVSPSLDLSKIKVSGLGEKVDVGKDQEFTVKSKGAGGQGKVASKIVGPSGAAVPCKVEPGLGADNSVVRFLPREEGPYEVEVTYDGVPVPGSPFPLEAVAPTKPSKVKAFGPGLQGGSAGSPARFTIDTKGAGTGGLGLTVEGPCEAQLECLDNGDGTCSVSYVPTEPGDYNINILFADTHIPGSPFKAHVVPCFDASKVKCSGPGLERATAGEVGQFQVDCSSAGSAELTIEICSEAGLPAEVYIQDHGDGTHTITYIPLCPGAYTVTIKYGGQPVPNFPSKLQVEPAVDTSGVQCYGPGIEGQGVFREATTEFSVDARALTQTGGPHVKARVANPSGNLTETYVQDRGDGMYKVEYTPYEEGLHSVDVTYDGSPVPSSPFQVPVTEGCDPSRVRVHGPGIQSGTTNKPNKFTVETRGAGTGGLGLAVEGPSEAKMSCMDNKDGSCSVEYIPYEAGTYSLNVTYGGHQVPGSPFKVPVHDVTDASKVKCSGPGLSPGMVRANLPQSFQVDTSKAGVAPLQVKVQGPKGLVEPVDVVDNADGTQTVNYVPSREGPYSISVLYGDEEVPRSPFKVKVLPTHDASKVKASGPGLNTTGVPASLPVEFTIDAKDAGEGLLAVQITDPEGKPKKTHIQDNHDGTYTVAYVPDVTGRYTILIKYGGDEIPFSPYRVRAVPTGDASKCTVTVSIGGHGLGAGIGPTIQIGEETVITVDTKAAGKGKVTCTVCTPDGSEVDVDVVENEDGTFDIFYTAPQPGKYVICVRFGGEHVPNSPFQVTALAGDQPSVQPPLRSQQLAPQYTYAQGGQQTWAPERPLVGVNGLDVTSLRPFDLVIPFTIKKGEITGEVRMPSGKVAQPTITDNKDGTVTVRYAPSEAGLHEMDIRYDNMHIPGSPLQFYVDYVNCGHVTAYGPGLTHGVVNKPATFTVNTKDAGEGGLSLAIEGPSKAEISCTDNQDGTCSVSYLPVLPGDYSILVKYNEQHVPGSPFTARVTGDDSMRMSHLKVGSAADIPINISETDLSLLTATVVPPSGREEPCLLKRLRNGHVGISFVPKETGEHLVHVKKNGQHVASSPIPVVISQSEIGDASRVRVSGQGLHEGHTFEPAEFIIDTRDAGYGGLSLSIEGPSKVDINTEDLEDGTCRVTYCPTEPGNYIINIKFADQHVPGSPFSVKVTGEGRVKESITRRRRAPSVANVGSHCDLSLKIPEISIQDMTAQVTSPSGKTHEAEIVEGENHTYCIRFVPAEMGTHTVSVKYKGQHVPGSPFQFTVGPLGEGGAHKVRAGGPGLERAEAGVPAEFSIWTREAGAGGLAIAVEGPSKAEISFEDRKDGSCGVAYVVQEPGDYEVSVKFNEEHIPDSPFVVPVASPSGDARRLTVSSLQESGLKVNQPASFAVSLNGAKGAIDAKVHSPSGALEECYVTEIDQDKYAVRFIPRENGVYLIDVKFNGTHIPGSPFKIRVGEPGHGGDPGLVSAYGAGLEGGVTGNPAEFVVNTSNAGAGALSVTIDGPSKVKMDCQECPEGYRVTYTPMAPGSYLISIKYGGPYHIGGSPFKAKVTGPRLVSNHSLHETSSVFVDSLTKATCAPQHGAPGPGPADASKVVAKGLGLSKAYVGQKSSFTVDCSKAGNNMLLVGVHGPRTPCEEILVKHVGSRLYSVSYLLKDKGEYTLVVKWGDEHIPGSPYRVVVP
Chain of E.Coli-expressed partial FLNB (aa 1416-2089) (Homo sapiens (Human)) (O75369 1416-2089, tags left off): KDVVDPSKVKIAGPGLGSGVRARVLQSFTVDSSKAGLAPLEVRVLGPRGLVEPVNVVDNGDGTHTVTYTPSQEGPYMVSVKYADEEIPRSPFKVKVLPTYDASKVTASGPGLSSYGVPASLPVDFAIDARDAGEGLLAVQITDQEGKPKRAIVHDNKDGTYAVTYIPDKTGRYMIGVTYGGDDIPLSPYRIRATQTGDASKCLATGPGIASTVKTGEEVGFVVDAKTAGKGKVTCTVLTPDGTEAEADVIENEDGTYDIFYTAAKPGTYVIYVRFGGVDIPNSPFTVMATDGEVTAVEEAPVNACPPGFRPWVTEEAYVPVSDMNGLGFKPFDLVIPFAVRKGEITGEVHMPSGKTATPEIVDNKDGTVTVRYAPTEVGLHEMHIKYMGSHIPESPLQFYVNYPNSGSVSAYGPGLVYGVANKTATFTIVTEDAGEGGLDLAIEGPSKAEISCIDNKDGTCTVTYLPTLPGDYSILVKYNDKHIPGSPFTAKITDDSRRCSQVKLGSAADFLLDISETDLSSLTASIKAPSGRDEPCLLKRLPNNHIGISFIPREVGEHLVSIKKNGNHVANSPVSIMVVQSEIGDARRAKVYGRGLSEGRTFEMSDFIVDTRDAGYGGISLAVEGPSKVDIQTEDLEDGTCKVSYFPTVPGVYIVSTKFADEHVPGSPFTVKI

Turning to “Neg ctl (negative control of the ELISA of Table 2)”, the ELISA test result (signal) came out at 0.043 in test [1]; 0.042 in test [2]; 0.069 in [3]; 0.072 in [4]; 0.072 in [5].

On to “Pos ctl (positive control of the ELISA of Table 2)”, for which the ELISA test result (signal) in test [6] was 3.09; in [7], 1.7; in test [8], 3.85.

B1: anti-FLNA murine monoclonal antibody 6E3 (antibody, IgG1, V domains shown)
VH: QVQLQQSGAELMKPGASVKLSCKATGYTFTGYWIEWVKQRPGHGLEWIGEILPGNGSTNCNEKFKGKATFTATTSSNTAYMQLSSLTTEDSAIYYCTTVSYWGQGTTLTVSS
VL: DVVMTQTPLSLPVSLGDQASISCRSSQSLVHSNGNTYLHWYLQKPGQSPNLLIYKVSNRFSGVPDRFTGSGSGTDFTLKISRVEAEDLGVYFCSQSTHVPFTFGSGTKLEIK
notes: also called clone 6E3; mab 6E3
In test [9], B1 came in with a Kd of 4.02 nM, a Response of 0.33, a koff of 0.000784 s⁻¹ and a kon of 195000 M⁻¹ s⁻¹. Also, in test [10], the “ELISA test result (signal)” value is 2.2. In addition, the “ELISA test result (signal)” value in test [11] came to 0.041. The “ELISA test result (signal)” value in test [12] was determined as 2.57.

B2: anti-FLNA murine monoclonal antibody 3F4 (antibody, IgG2b, V domains shown)
VH: EVQLQESGPGLAKPSQTLSLTCSVTGYSITSNYWNWIRKFPGNKLEYMGYISFSGSTYYNPSLKSRISITRDTSKNQYYLQLNSVTTEDTATYYCARWNYYAMDYWGQGTSVTVSS
VL: DFLLTQSPAILSVSPGERVSFSCRASQSIGTNIHWYQQRTNGSPRLLIKFASESISGIPSRFSGSGSGTDFTLTINSVESEDIADYYCQQSNSWPYTFGGGTKLEIK
notes: also called clone 3F4
For B2, in [9], the Kd worked out at 0.999 nM, the Response stood at 0.283, the koff amounted to 0.000804 s⁻¹ and the kon was 805000 M⁻¹ s⁻¹. Moreover, the “ELISA test result (signal)” value in [10] was 2.35. Further, the “ELISA test result (signal)” value in test [11] was 0.042. The “ELISA test result (signal)” value in test [12] worked out at 3.04.

B3: anti-FLNA murine monoclonal antibody 2C12 (antibody, IgG1, V domains shown)
VH: QVQLKQSGPGLVQPSQSLSITCTVSGFSLTNYGVHWVRQSPGKGLEWLGVIWRGGSTDYNAAFMSRLSITKDNSKSQVFFKMNSLQADDTAIYFCALRGNYVHYYLMDYWGQGTSVTVSS
VL: DIQVTQTPSSLSASLGDRVTISCRASQDISNYLNWYQQKPDGTVKLLIYYTSRLHSGVPSRFSGSGSGTDYSLTISNLDQEDIATYFCQQGNTLPPTFGGGTNLEIK
notes: also called clone 2C12
Turning to B3, in [9], the Kd amounted to 4.82 nM, the Response is 0.222, the koff came to 0.000381 s⁻¹ and the kon stood at 79000 M⁻¹ s⁻¹. Further, in test [10], the “ELISA test result (signal)” value worked out at 1.87. In addition, the “ELISA test result (signal)” value in test [11] was 0.044. In addition, the “ELISA test result (signal)” value in [12] is 3.32.

One may read the Kd as the free concentration of one partner at which half of the binding sites on the other are occupied at equilibrium, for simple one-to-one binding. A lower Kd goes with a tighter complex. By koff is commonly meant the rate constant with which the complex falls apart. A word on the kon: it is a measure of how fast the partners come together. A lower kon goes with slow association.
